Results on three molecules are retold here after patent US20240279622A1, “COELENTERAZINE-UTILIZING LUCIFERASES WITH STABLE GLOW-TYPE LIGHT EMISSION AND METHODS OF PRODUCING AND USING THEREOF” (MASARYKOVA UNIVERZITA, priority 2021, published 2024).

Data set [1] in a line: Thermal unfolding by NanoDSF (tryptophan fluorescence). It is filed as physicochemical. The settings on record: for Tm / Tonset: 100 mM potassium phosphate buffer pH 7.5, 1° C./min. The protocol:
Thermal unfolding was studied using NanoDSF Prometheus (NanoTemper, Germany) by monitoring tryptophan fluorescence over the temperature range of 20 to 90° C., at a heating rate of 1° C./min. The melting temperatures (Tonset and Tm) were evaluated directly by ThermControl v2.0.2.
On the technique in general: In DSF a fluorescence change marks the thermal transition of the protein.

The nature of data set [2]: Stopped-flow pre-steady-state kinetics of substrate binding (tryptophan fluorescence quenching). The settings on record: 15° C.; for k+1: pH 7.5, induced-fit binding mechanism. The protocol: The measurement was performed at 15° C. in 100 mM potassium phosphate buffer pH 7.5. Rapid mixing of the components was achieved using the Stopped-Flow SFM 3000 combined with the MOS-500 spectrometer (BioLogic, France). The reaction was initiated by mixing 75 μL of an enzyme with 75 μL of coelenterazine and then monitored by the change of native tryptophan fluorescence (295 nm excitation, 340±13 nm emission). The fluorescence changes were caused by the quenching effect of the coelenterazine substrate upon its binding by an enzyme. The experiment was designed in two different modes, varying either the concentration of the coelenterazine substrate or the concentration of an enzyme. Each kinetic trace was measured in seven consecutive replicates and averaged. The concentration of coelenterazine in the final reaction mixture ranged from 0.9 to 90 μM while the concentration of luciferase enzymes ranged from 0.4 to 94 μM.
The collected double-exponential kinetic traces were fitted globally with the KinTek Explorer (KinTek Corporation, USA). The software allows for the input of a given kinetic model via a simple text description, and the program then derives the differential equations needed for numerical integration automatically. Numerical integration of rate equations searching a set of kinetic parameters that produce a minimum χ^2 value was performed using the Bulirsch-Stoer algorithm with adaptive step size, and nonlinear regression to fit data was based on the Levenberg-Marquardt method. Residuals were normalized by sigma values for each data point. The standard error was calculated from the covariance matrix during nonlinear regression. In addition to standard error values, more rigorous analysis of the variation of the kinetic parameters was accomplished by confidence contour analysis by using FitSpace Explorer (KinTek Corporation, USA). In these analyses, the lower and upper limits for each parameter were derived from the confidence contour obtained from setting the χ^2 threshold at 0.95.
The time-course of the fluorescence quenching upon substrate binding was described with Equation (7) according to the induced-fit binding mechanism and the mechanism was fit directly to the collected kinetic data to obtain the values of elementary rate constants describing the substrate binding process. The quality of the best fits was compared in terms of χ^2 values, “chi-by-eye” assessment, and confidence contour analysis assessing constraint and independency of the determined parameters which confirmed that the obtained values are well-defined by the collected kinetic data.

Data set [3] can be described thus: Luminescence specific activity of the ancestral protein. Type of data set: biochemical. The settings on record: 7.9 μM coelenterazine, 37° C., compared to RLuc. How it is done: Both the coelenterazine substrate and the AncHLD-RLuc enzyme were dissolved in 100 mM potassium phosphate buffer pH 7.5 and their resulting concentrations in the reaction mixture were 7.9 μM coelenterazine, 1.5 nM RLuc, and 2.8 μM AncHLD-RLuc. Bioluminescence activity traces were collected at 37° C. over the first 72.5 seconds immediately after injection of the substrate into the enzyme solution. The activity of each enzyme sample was measured in at least three independent experiments. The collected luminescence curves were integrated to obtain a linear increase of cumulative luminescence over time, while the slope gave the final value of activity, represented in RLU·s^−1. For each enzyme, the calculated activity was related to one milligram of the enzyme to get the final value of specific activity in RLU·s^−1·mg^−1.

A short description of data set [4]: Steady-state kinetic analysis of full-conversion cumulative luminescence curves. It is filed as biochemical. The protocol: Each luminescence trace was measured in 3 repetitions. The concentration of coelenterazine in the final reaction mixture ranged from 0.2 to 7.9 μM while the concentration of luciferase enzymes ranged from 17 to 640 nM.
An updated protocol applying new standards for collecting and fitting steady-state kinetic data was used. Unlike the classical initial velocity analysis, which requires a sophisticated luminometer calibration and quantum yield evaluation, luminescence data were recorded when letting the reaction proceed to completion beyond the initial linear phase. The recorded luminescence traces (rate vs. time) were transformed to reaction progress curves corresponding to cumulative luminescence in time. The transformed kinetic data (product vs. time) were fitted globally with the KinTek Explorer (KinTek Corporation, USA). The software allows for the input of a given kinetic model via a simple text description, and the program then derives the differential equations needed for numerical integration automatically.
Numerical integration of rate equations searching a set of kinetic parameters that produce a minimum χ^2 value was performed using the Bulirsch-Stoer algorithm with adaptive step size, and nonlinear regression to fit data was based on the Levenberg-Marquardt method. To account for fluctuations in experimental data, enzyme or substrate concentrations were slightly adjusted (5%) to derive best fits. Residuals were normalized by sigma values for each data point. The standard error was calculated from the covariance matrix during nonlinear regression. In addition to standard error values, more rigorous analysis of the variation of the kinetic parameters was accomplished by confidence contour analysis by using FitSpace Explorer (KinTek Corporation, USA). In these analyses, the lower and upper limits for each parameter were derived from the confidence contour obtained from setting χ^2 threshold at 0.9. The scaling factor, relating luminescence signal to product concentration, was applied as one of the fitted parameters, well constrained by end-point levels of kinetic traces recorded at particular substrate concentrations. Depletion of the available substrate after the reaction was ensured by repeated injection of the fresh enzyme.
The steady-state model, described by Equation (4), was used to obtain the values of turnover number kcat, Michaelis constant Km, and equilibrium dissociation constant for enzyme-product complex Kp. A conservative estimate for diffusion-limited substrate and product binding k1 and k3 (100 μM^−1·s^−1) was used as a fixed value to mimic the rapid equilibrium assumption. An alternative form of the model, described by Equation (5), was used to obtain estimates of kcat/Km directly by setting k−1=0.

Data set [5] can be described thus: Anaerobic equilibrium binding of coelenterazine substrate (fluorescence). How it is done:
The experiments were performed under strictly anaerobic conditions to prevent enzymatic oxidation of interacting ligands. To do so, all the equipment and material, including water, buffer, pipettes, tips, syringes, microplates, and sealing, were made anaerobic by incubating them overnight in the anaerobic glovebox Belle MR2 (Belle Technology, UK). The box was filled with ultra-high purity (UHP) nitrogen atmosphere containing the residual oxygen concentration of 2.3 ppm, as determined by the oxygen meter O2M-3 (Belle Technology, UK). Liquids were aliquoted to the volume of maximally 50 mL and were stirred overnight in the box to release any dissolved oxygen. Two hours prior to the experiment, a closed bottle with an evacuated lyophilized enzyme (oxygen depleted) was put into the glovebox, dissolved with anaerobic water, and incubated to remove any remaining oxygen possibly dissolved in the solution. Similarly, the stock solution of coelenterazine or coelenteramide in ethanol, which was long-term stored in a freezer under the nitrogen atmosphere without oxygen, was put into the glovebox in a closed bottle. A small aliquot of coelenterazine/coelenteramide was transferred into a new empty bottle and kept open for about 20 minutes to remove the remaining dissolved oxygen. After the incubation, a few microliters of an enzyme were mixed with the same amount of coelenterazine, and the mixture was visually inspected for any possible bioluminescence. If no light was observed and the mixture remained yellow even after a minute, all the reagents were ready for anaerobic measurements.
In the anaerobic glovebox, 200 μL of a differently concentrated enzyme was put into a separate well in a microplate and into each of these wells, 5 μL of coelenterazine or coelenteramide stock solution was added. As a blank, 200 μL of the enzyme was mixed with 5 μL of ethanol for each enzyme concentration. […] The extent of coelenterazine binding at each concentration was determined by measuring fluorescence spectra ranging from 480 to 580 nm upon excitation at 420 nm using the microplate spectrophotometer Varioskan LUX (Thermo Scientific, USA). Binding of coelenteramide was monitored by measuring fluorescence spectra ranging from 350 to 700 nm upon excitation at 330 nm. […]
The obtained fluorescence spectra were visually inspected for characteristic peaks, and the value of the maximal fluorescence intensity Fluomax at these peaks was plotted against the enzyme concentration. The final value of the dissociation constant Kd was determined by fitting the dependence with the hyperbolic Equation (8) using the software Origin 6.1 (OriginLab, USA).

Data set [6] in a line: Anaerobic equilibrium binding of coelenteramide product (fluorescence). The settings on record: pH 7.5, 30° C., read-out: Dissociation constant Kd, Coelenteramide product. How it is done:
The experiments were performed under strictly anaerobic conditions to prevent enzymatic oxidation of interacting ligands. To do so, all the equipment and material, including water, buffer, pipettes, tips, syringes, microplates, and sealing, were made anaerobic by incubating them overnight in the anaerobic glovebox Belle MR2 (Belle Technology, UK). The box was filled with ultra-high purity (UHP) nitrogen atmosphere containing the residual oxygen concentration of 2.3 ppm, as determined by the oxygen meter O2M-3 (Belle Technology, UK). Liquids were aliquoted to the volume of maximally 50 mL and were stirred overnight in the box to release any dissolved oxygen. […] If no light was observed and the mixture remained yellow even after a minute, all the reagents were ready for anaerobic measurements.
In the anaerobic glovebox, 200 μL of a differently concentrated enzyme was put into a separate well in a microplate and into each of these wells, 5 μL of coelenterazine or coelenteramide stock solution was added. […] The extent of coelenterazine binding at each concentration was determined by measuring fluorescence spectra ranging from 480 to 580 nm upon excitation at 420 nm using the microplate spectrophotometer Varioskan LUX (Thermo Scientific, USA). Binding of coelenteramide was monitored by measuring fluorescence spectra ranging from 350 to 700 nm upon excitation at 330 nm. […]

The conditions of data set [7]: pH 7.5.
Experimental: Solid coelenterazine was dissolved in ice-cold ethanol and stored under a nitrogen atmosphere in dark glass vials at −20° C. Before each measurement, the concentration and maintained quality of the ethanol stock solutions were verified spectrophotometrically. A buffer solution of coelenterazine was prepared by mixing an appropriate volume of the ethanol stock solution with 100 mM phosphate buffer pH 7.5 immediately before the measurement. Tested luciferase enzyme samples were dissolved in the same 100 mM phosphate buffer pH 7.5. The enzymatic reaction was initiated inside the microplate reader FLUOstar OPTIMA (BMG Labtech, Germany) by the automatic addition of 225 μL buffer solution of coelenterazine into a microplate well containing 25 μL of enzyme solution. The resulting bioluminescence activity traces were collected at 37° C. until the luminescence intensity decreased to less than 0.5% of its maximal measured value. Each luminescence trace was measured in 3 repetitions. The concentration of coelenterazine in the final reaction mixture was 2.2 μM while the concentration of luciferase enzymes was 50 nM. The obtained luminescence kinetic data were fitted to an exponential decay or a logistic model using Origin 6.1 (OriginLab, USA) and the value of half-life t1/2, defined as the time when the initial luminescence signal decreased to 50%, was calculated.
The conditions of data set [8]: compared to RLuc; cited from earlier work.
The conditions of data set [9]: from Loening et al. (2006); cited from earlier work.

Where two headings read alike, the source gives them in different places.

B1: AncHLD-RLuc: Reconstructed most-likelihood ancestral protein of Renilla reniformis luciferase and haloalkane dehalogenases (protein)
chain: MVSASQRTTSTATGDEWWAKCKQVDVLDSEMSYYDSDPGKHKNTVIFLHGNPTSSYLWRNVIPHVEPLARCLAPDLIGMGKSGKLPNHSYRFVDHYRYLSAWFDSVNLPEKVTIVCHDWGSGLGFHWCNEHRDRVKGIVHMESVVSPLKGWESFPETARDIFQALRSEAGEEMVLKKNFFIERLLPSSIMRKLSEEEMDAYREPFVEPGESRRPTLTWPREIPIKGDGPEDVIEIVKSYNKWLSTSKDIPKLFINADPGFFSNAIKKVTKNWPNQKTVTVKGLHFLQEDSPEEIGEAIADFLNELTK
modifications: Ancestral protein of Renilla reniformis luciferase
For orientation: Tm means the temperature at the midpoint of the melting transition. As for B1, in data set [1], the Tm turned out to be 64.9 ± 0.1 °C and the Tonset worked out at 57.4 ± 0.1 °C. For the same molecule, the “Apparent melting temperature higher than RLuc” value in data set [1] (difference to RLuc) amounted to 21.2 °C. In [2] (pH 7.5), the “k−1” value amounted to 0.118 ± 0.071 s⁻¹. The “k+1” value in data set [2] was 3000 ± 3000 M⁻¹ s⁻¹. Further, the “Bioluminescence activity lower than the modern luciferase enzyme” value in [3] is given as > 100,000 fold.

B2: RLuc8: Eight-point mutant of RLuc (A55T, C124A, S130A, K136R, A143M, M185V, M253L, and S287L) (protein)
chain: MTSKVYDPEQRKRMITGPQWWARCKQMNVLDSFINYYDSEKHAENAVIFLHGNATSSYLWRHVVPHIEPVARCIIPDLIGMGKSGKSGNGSYRLLDHYKYLTAWFELLNLPKKIIFVGHDWGAALAFHYAYEHQDRIKAIVHMESVVDVIESWDEWPDIEEDIALIKSEEGEKMVLENNFFVETVLPSKIMRKLEPEEFAAYLEPFKEKGEVRRPTLSWPREIPLVKGGKPDVVQIVRNYNAYLRASDDLPKLFIESDPGFFSNAIVEGAKKFPNTEFVKVKGLHFLQEDAPDEMGKYIKSFVERVLKNEQ
modifications: RLuc8
The kcat is the number of substrate molecules converted per active site and unit of time at saturation. Consider B2, for which the turnover number (kcat) in data set [4] (100 mM phosphate buffer pH 7.5, 37° C.) turned out to be 4.7 ± 0.1 s⁻¹. For the same molecule, the Kd in data set [4] (100 mM phosphate buffer pH 7.5, 37° C., read-out: Kp (equilibrium dissociation constant for enzyme-product complex)) stood at 1.18 ± 0.05 µM. Moreover, the Glow-type effectivity in [4] (kcat/Km divided by Km/Kp) is given as 2.3 ± 0.2. In data set [1], the midpoint of thermal melting (Tm) was 45.0 ± 0.1 °C and the Tonset came out at 35.2 ± 0.1 °C. Besides, in data set [2] (pH 7.5), the “k+2” value was 26.6 ± 1.1 s⁻¹, the “k−1” value was 305 ± 5 s⁻¹ and the “k−2” value amounted to 23.4 ± 0.2 s⁻¹. In addition, in data set [2], the “k+1” value is 2.35e+06 ± 40000 M⁻¹ s⁻¹. For the same molecule, the Kd in data set [5] (anaerobic, pH 7.5, 30° C., read-out: Dissociation constant Kd, Coelenterazine substrate) came out at 37 ± 15 µM. In addition, the Kd ratio substrate/product in [5] (ratio) was determined as 1.7 ± 0.7. Also, the Kd in data set [6] amounted to 22 ± 2 µM. In addition, in [7], the “Half-life (t1/2)” value stood at 6.36 ± 0.06 s. In data set [8], the Bioluminescence activity improvement was 4.3 fold.

B3: RLuc: Luciferase isolated from the sea pansy Renilla reniformis (protein)
chain: MTSKVYDPEQRKRMITGPQWWARCKQMNVLDSFINYYDSEKHAENAVIFLHGNAASSYLWRHVVPHIEPVARCIIPDLIGMGKSGKSGNGSYRLLDHYKYLTAWFELLNLPKKIIFVGHDWGACLAFHYSYEHQDKIKAIVHAESVVDVIESWDEWPDIEEDIALIKSEEGEKMVLENNFFVETMLPSKIMRKLEPEEFAAYLEPFKEKGEVRRPTLSWPREIPLVKGGKPDVVQIVRNYNAYLRASDDLPKMFIESDPGFFSNAIVEGAKKFPNTEFVKVKGLHFSQEDAPDEMGKYIKSFVERVLKNEQ
modifications: RLuc
B3: in data set [1], the melting temperature (Tm) came to 43.7 ± 0.1 °C and the Tonset worked out at 36.3 ± 0.2 °C. Besides, in [7], the “Half-life (t1/2)” value was found to be 16.4 ± 0.06 s. In data set [9], the kcat is 3.9 ± 0.4 s⁻¹.
